T1: WT1 (modified WT1 235 peptide, mWT1 235) peptide on HLA-A*24:02 (human)
T1 peptide: CYTWNQMNL

T2: WT1 (natural WT1 235 peptide, nWT1 235) peptide on HLA-A*24:02 (human)
T2 peptide: CMTWNQMNL


Tests used:
[1] = molecular target: T1, WT1 (modified WT1 235 peptide, mWT1 …); test: NFAT-GFP reporter; TCR-transduced 2D3 cells, T2-2402 and titrated mWT1 235 peptide; full-length, on cells
[2] = molecular target: T2, WT1 (natural WT1 235 peptide, nWT1 235) …; test: NFAT-GFP reporter; TCR-transduced 2D3 cells, T2-2402 and titrated nWT1 235 peptide; full-length, on cells

Row | EC50 of peptide [1] [µM] | EC50 of peptide [2] [µM] | Binder
1 | 0.976 | – | FSK1-TCR (TCR) alpha TRAV19*01 TRAJ26*01 CDR3: CALSAAYGQNFVF beta TRBV6-5*01 TRBJ2-1*01 CDR3: CASSYGKGLYNEQFF
2 | 1.78 | – | TM-L1-TCR (TCR) alpha TRAV17*01 TRAJ43*01 CDR3: CATDPGYNNDMRF beta TRBV20-1*01 TRBJ2-2*01 CDR3: CSARGQRELSGELFF
3 | 0.0293 | 0.18 | TM-H2-TCR (TCR) alpha TRAV20*02 TRAJ52*01 CDR3: CAVRGGRAGGTSYGKLTF beta TRBV9*01 TRBJ2-3*01 CDR3: CASSVFGSSTDTQYF
